Test results from doi:10.1101/432138.

Target: P02671
Assay: SEC-MALS

B1: Fib1 fibrinogen (protein)
chain 1: GPRVVERHQSACKDSDWPFCSDEDWNYKCPSGCRMKGLIDEVNQDFTNRINKLKNSLFEYQKNNKDSHSLTTNIMEILRGDFSSANNRDNTYNRVSEDLRSRIEVLKRKVIEKVQHIQLLQKNVRAQLVDMKRLEVDIDIKIRSCRGSCSRALAREVDLKDYEDQQKQLEQVIAKDLLPSRDRQHLPLIKMKPVPDLVPGNFKSQLQKVPPEWKALTDMPQMRMELERPGGNEITRGGSTSYGTGSETESPRNPSSAGSWNSGSSGPGSTGNRNPGSSGTGGTATWKPGSSGPGSTGSWNSGSSGTGSTGNQNPGSPRPGSTGTWNPGSSERGSAGHWTSESSVSGSTGQWHSESGSFRPDSPGSGNARPNNPDWGTFEEVSGNVSPGTRREYHTEKLVTSKGDKELRTGKEKVTSGSTTTTRRSCSKTVTKTVIGPDGHKEVTKEVVTSEDGSDCPEAMDLGTLSGIGTLDGFRHRHPDEAAFFDTASTGKTFPGFFSPMLGEFVSETESRGSESGIFTNTKESSSHHPGIAEFPSRGKSSSYSKQFTSSTSYNRGDSTFESKSYKMADEAGSEADHEGTHSTKRGHAKSRPVRDCDDVLQTHPSGTQSGIFNIKLPGSSKIFSVYCDQETSLGGWLLIQQRMDGSLNFNRTWQDYKRGFGSLNDEGEGEFWLGNDYLHLLTQRGSVLRVELEDWAGNEAYAEYHFRVGSEAEGYALQVSSYEGTAGDALIEGSVEEGAEYTSHNNMQFSTFDRDADQWEENCAEVYGGGWWYNNCQAANLNGIYYPGGSYDPRNNSPYEIENGVVWVSFRGADYSLRAVRMKIRPLVTQ
chain 2: GHRPLDKKREEAPSLRPAPPPISGGGYRARPAKAAATQKKVERKAPDAGGCLHADPDLGVLCPTGCQLQEALLQQERPIRNSVDELNNNVEAVSQTSSSSFQYMYLLKDLWQKRQKQVKDNENVVNEYSSELEKHQLYIDETVNSNIPTNLRVLRSILENLRSKIQKLESDVSAQMEYCRTPCTVSCNIPVVSGKECEEIIRKGGETSEMYLIQPDSSVKPYRVYCDMNTENGGWTVIQNRQDGSVDFGRKWDPYKQGFGNVATNTDGKNYCGLPGEYWLGNDKISQLTRMGPTELLIEMEDWKGDKVKAHYGGFTVQNEANKYQISVNKYRGTAGNALMDGASQLMGENRTMTIHNGMFFSTYDRDNDGWLTSDPRKQCSKEDGGGWWYNRCHAANPNGRYYWGGQYTWDMAKHGTDDGVVWMNWKGSWYSMRKMSMKIRPFFPQQ
chain 3: YVATRDNCCILDERFGSYCPTTCGIADFLSTYQTKVDKDLQSLEDILHQVENKTSEVKQLIKAIQLTYNPDESSKPNMIDAATLKSRKMLEEIMKYEASILTHDSSIRYLQEIYNSNNQKIVNLKEKVAQLEAQCQEPCKDTVQIHDITGKDCQDIANKGAKQSGLYFIKPLKANQQFLVYCEIDGSGNGWTVFQKRLDGSVDFKKNWIQYKEGFGHLSPTGTTEFWLGNEKIHLISTQSAIPYALRVELEDWNGRTSTADYAMFKVGPEADKYRLTYAYFAGGDAGDAFDGFDFGDDPSDKFFTSHNGMQFSTWDNDNDKFEGNCAEQDGSGWWMNKCHAGHLNGVYYQGGTYSKASTPNGYDNGIIWATWKTRWYSMKKTTMKIIPFNRLTIGEGQQHHLGGAKQVRPEHPAETEYDSLYPEDDL
relative mass of the aggregates: about 4% of the total mass of fibrinogen
